Values quoted from earlier work, collected in patent US20250255929A1, “METHODS FOR REDUCING RISKS ASSOCIATED WITH HEART FAILURE AND FACTORS ASSOCIATED THEREWITH” (Stealth BioTherapeutics Inc., priority 2012, published 2025).
Square brackets hold non-standard residues; d marks the D form. Ends that are not written are not given here. Dmt = Cc1cc(O)cc(C)c1C[C@H](N)C(=O)O

Tested on: several mammalian cell types
Conditions: energy-independent manner, Zhao et al., J. Pharmacol Exp Ther., 304:425-432, 2003; cited from earlier work

Substance: 2′,6′-Dmt-D-Arg-Phe-Lys-NH2 ([Dmt][dR]FK-NH2)
- penetration of the plasma membrane: readily penetrates the plasma membrane
